The record followed here is article PMC6044691 (ACS Omega, 2017).

Changes are numbered by the printed parent chain. Names and notes keep the numbering of the source.

The data set “AUC” deals with the molecule itself. The experiment in a line: AUC.
The data set “crystal structure” deals with the molecule itself. The experiment in a line: crystal structure.

B1: N-terminal truncated Z,Z-farnesyl diphosphate synthase (ΔzFPS) (enzyme, Solanum habrochaites, UniProt B8XA40 71-303, looked up)
chain: MLDEALMPKHIALIMDGNRRWAKDKGLDVSEGHKHLFPKLKEICDISSKLGIQVITAFAFSTENWKRAKGEVDFLMQMFEELYDEFSRSGVRVSIIGCKTDLPMTLQKCIALTEETTKGNKGLHLVIALNYGGYYDILQATKSIVNKAMNGLLDVEDINKNLFDQELESKCPNPDLLIRTGGDQRVSNFLLWQLAYTEFYFTKTLFPDFGEEDLKEAIINFQQRHRRFGGHTY
As for B1, the “stoichiometry N” value in “AUC” was found to be 2.

B2: ΔzFPS-H103Y mutant (enzyme, Solanum habrochaites, UniProt B8XA40 71-303, looked up)
chain: B1 chain with H33Y
Regarding B2, in “crystal structure”, the binding result was “binds”.

A word on the stoichiometry N: it is the number of molecules, sites or subunits per partner or assembly.
